The text below walks through data of patent US20100291677A1.

What all share (assay): cell-based or functional assay
Assay [1] concerns the target MCP1 (monocyte chemoattractant protein-1) protein (human) (UniProt P13500).
The target of assay [2] is FSTL1 (Follistatin-like 1) protein (human) (UniProt Q12841).
For assay [3], the target named is IL-13Ra2 (interleukin 13 alpha 2 receptor) protein (human) (UniProt Q14627).
For assay [4], the target named is TSP1 (thrombospondin-1) protein (human) (UniProt P07996).
Sequence of UniProt P07996 (P07996 19-1170 limits assumed): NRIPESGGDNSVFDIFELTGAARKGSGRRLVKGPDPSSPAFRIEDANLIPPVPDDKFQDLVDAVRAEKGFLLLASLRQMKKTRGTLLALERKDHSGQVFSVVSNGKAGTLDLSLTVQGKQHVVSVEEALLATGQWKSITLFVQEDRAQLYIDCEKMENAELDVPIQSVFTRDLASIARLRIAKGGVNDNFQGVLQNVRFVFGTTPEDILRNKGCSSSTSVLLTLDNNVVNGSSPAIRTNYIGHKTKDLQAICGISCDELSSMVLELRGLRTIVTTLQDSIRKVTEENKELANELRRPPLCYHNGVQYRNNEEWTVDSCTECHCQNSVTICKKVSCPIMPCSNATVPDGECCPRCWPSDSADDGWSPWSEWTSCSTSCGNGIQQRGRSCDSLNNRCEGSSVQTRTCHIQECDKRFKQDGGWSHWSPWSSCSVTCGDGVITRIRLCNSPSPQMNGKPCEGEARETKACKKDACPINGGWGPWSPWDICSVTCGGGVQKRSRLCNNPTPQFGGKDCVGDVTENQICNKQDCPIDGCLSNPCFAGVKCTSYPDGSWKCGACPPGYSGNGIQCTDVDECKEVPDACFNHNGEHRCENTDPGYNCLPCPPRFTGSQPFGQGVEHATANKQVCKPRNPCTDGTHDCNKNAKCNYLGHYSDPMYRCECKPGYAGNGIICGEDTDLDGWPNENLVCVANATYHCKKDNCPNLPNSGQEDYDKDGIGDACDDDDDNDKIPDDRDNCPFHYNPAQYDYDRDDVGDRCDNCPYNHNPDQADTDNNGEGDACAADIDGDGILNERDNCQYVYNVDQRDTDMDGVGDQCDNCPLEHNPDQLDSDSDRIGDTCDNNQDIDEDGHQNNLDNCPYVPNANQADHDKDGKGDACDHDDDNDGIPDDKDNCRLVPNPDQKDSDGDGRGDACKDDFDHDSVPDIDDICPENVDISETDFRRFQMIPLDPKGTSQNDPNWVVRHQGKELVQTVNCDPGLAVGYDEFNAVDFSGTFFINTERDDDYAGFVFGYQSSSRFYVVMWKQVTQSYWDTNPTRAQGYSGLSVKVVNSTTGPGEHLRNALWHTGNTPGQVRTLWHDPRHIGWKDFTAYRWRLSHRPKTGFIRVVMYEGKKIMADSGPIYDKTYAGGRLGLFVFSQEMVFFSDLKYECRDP
In another assay the target is TGF-beta (UniProt P01137).
Sequence of UniProt P01137 (P01137 279-390 limits assumed): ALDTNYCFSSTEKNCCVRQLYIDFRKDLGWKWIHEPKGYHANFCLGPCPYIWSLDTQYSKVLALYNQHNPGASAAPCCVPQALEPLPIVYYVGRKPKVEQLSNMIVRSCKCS
A further assay addresses IL-10 protein (UniProt P22301).
Sequence of UniProt P22301 (P22301 19-178 limits assumed): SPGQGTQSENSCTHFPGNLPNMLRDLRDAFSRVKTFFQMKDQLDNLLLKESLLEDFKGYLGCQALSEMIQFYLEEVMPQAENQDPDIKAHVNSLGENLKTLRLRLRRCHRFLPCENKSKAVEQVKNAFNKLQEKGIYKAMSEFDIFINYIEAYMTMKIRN

Sequence of UniProt Q14627 (Q14627 27-380 limits assumed): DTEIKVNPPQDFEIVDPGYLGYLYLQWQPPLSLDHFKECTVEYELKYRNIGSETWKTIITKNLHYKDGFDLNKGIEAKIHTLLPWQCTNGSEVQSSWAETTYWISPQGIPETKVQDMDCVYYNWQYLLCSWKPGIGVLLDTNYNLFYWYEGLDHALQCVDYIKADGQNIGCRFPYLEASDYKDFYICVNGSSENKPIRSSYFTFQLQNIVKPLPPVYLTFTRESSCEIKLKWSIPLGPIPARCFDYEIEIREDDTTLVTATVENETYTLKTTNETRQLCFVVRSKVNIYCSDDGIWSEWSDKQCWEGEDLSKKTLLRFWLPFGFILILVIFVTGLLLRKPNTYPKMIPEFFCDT
Sequence of UniProt Q12841 (Q12841 21-308 limits assumed): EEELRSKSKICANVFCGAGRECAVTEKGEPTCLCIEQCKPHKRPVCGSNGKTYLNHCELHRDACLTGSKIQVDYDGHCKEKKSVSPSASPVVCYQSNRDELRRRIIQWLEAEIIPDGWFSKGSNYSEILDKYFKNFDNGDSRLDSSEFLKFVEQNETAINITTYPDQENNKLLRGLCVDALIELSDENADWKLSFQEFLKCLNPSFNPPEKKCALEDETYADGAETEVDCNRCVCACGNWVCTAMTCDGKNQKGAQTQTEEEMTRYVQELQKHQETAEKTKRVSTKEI
Sequence of UniProt P13500 (P13500 24-99 limits assumed): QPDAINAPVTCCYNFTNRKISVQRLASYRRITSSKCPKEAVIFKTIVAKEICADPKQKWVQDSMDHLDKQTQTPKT

In assay [1], “anti-MCP1 antibody (BD PharMingen #551226)” returned a FoxP3 protein expression in CD8+ cells, F3 cells (FIG. 13) of 12; a decrease in cellular infiltration capability of F3 cells (matrigel Transwell, antibody at 1 ug/ml) of 45%; an expression level of FoxP3 protein in CD4+ cells, F3 clone with antibody (FIG. 6; 35.34 without) of 16.3; an expression level of FoxP3 protein in CD4+ cells, F3 clone with antibody (FIG. 7; 38.39 without) of 22.9. In assay [1], the expression level of FoxP3 protein in CD4+CD25+ cells, F3 clone with antibody was 22.1; the expression level of FoxP3 protein in CD4+CD25- cells, F3 clone with antibody amounted to 19; the expression of FoxP3 protein enhanced by the culture supernatant of B11 clone (FIG. 8) worked out at 4.69.

In assay [2], anti-FSTL1 antibody (R&D #MAB1694) yielded a decrease in cellular infiltration capability of F3 cells (matrigel Transwell, antibody at 1 ug/ml) of 45%; an expression level of FoxP3 protein in CD4+ cells, F3 clone with antibody (FIG. 6; 35.34 without) of 14.9; an expression level of FoxP3 protein in CD4+ cells, F3 clone with antibody (FIG. 7; 38.39 without) of 34.7; an expression level of FoxP3 protein in CD4+CD25+ cells, F3 clone with antibody of 29.9. Further, in assay [2], the expression level of FoxP3 protein in CD4+CD25- cells, F3 clone with antibody was 32.6.

As to anti-IL-13Ra2 antibody (R&D #AF146), in assay [3], the FoxP3 protein expression in CD8+ cells, B11 cells (FIG. 14) worked out at 10.2; the expression level of FoxP3 protein in CD4+ cells, F3 clone with antibody (FIG. 6) was 11.9; the expression of FoxP3 protein enhanced by the culture supernatant of B11 clone (FIG. 8; 23.69 without antibody) is 7.6.

Turning to anti-TSP1 antibody (ABCAM #ab3131), in assay [4], the FoxP3 protein expression in CD8+ cells, F3 cells (FIG. 13) was found to be 5.28; the expression level of FoxP3 protein in CD4+ cells, F3 clone with antibody (FIG. 6; 35.34 without) was 9.26; the expression level of FoxP3 protein in CD4+ cells, F3 clone with antibody (FIG. 7; 38.39 without) is 21.4; the expression level of FoxP3 protein in CD4+CD25+ cells, F3 clone with antibody stood at 27.8. The substance further returned an expression level of FoxP3 protein in CD4+CD25- cells, F3 clone with antibody in assay [4] of 16.6.

Turning to anti-TGF-beta1 antibody (R&D #MAB246), in the assay with TGF-beta, the expression level of FoxP3 protein in CD4+ cells, F3 clone with antibody (FIG. 6) was 23.4; the expression level of FoxP3 protein in CD4+ cells, F3 clone with antibody (FIG. 7) was 30.6; the expression level of FoxP3 protein in CD4+CD25+ cells, F3 clone with antibody came out at 28.9; the expression level of FoxP3 protein in CD4+CD25- cells, F3 clone with antibody turned out to be 28.4.

anti-IL-10 antibody (R&D #MAB2171): in the assay with IL-10 protein, the expression level of FoxP3 protein in CD4+ cells, F3 clone with antibody (FIG. 6) was found to be 11.4; the expression level of FoxP3 protein in CD4+ cells, F3 clone with antibody (FIG. 7) is 30.9; the expression level of FoxP3 protein in CD4+CD25+ cells, F3 clone with antibody came out at 29.9; the expression level of FoxP3 protein in CD4+CD25- cells, F3 clone with antibody was 28.1.
